In IntAct's records for PubMed 16311606:

B1: Polycystin-2 (Homo sapiens), Q13563 (parent)
chain: MVNSSRVQPQQPGDAKRPPAPRAPDPGRLMAGCAAVGASLAAPGGLCEQRGLEIEMQRIRQAAARDPPAGAAASPSPPLSSCSRQAWSRDNPGFEAEEEEEEVEGEEGGMVVEMDVEWRPGSRRSAASSAVSSVGARSRGLGGYHGAGHPSGRRRRREDQGPPCPSPVGGGDPLHRHLPLEGQPPRVAWAERLVRGLRGLWGTRLMEESSTNREKYLKSVLRELVTYLLFLIVLCILTYGMMSSNVYYYTRMMSQLFLDTPVSKTEKTNFKTLSSMEDFWKFTEGSLLDGLYWKMQPSNQTEADNRSFIFYENLLLGVPRIRQLRVRNGSCSIPQDLRDEIKECYDVYSVSSEDRAPFGPRNGTAWIYTSEKDLNGSSHWGIIATYSGAGYYLDLSRTREETAAQVASLKKNVWLDRGTRATFIDFSVYNANINLFCVVRLLVEFPATGGVIPSWQFQPLKLIRYVTTFDFFLAACEIIFCFFIFYYVVEEILEIRIHKLHYFRSFWNCLDVVIVVLSVVAIGINIYRTSNVEVLLQFLEDQNTFPNFEHLAYWQIQFNNIAAVTVFFVWIKLFKFINFNRTMSQLSTTMSRCAKDLFGFAIMFFIIFLAYAQLAYLVFGTQVDDFSTFQECIFTQFRIILGDINFAEIEEANRVLGPIYFTTFVFFMFFILLNMFLAIINDTYSEVKSDLAQQKAEMELSDLIRKGYHKALVKLKLKKNTVDDISESLRQGGGKLNFDELRQDLKGKGHTDAEIEAIFTKYDQDGDQELTEHEHQQMRDDLEKEREDLDLDHSSLPRPMSSRSFPRSLDDSEEDDDEDSGHSSRRRGSISSGVSYEEFQVLVRRVDRMEHSIGSIVSKIDAVIVKLEIMERAKLKRREVLGRLLDGVAEDERLGRDSEIHREQMERLVREELERWESDDAASQISHGLGTPVGLNGQPRPRSSRPSSSQSTEGMEGAGGNGSSNVHV
partner: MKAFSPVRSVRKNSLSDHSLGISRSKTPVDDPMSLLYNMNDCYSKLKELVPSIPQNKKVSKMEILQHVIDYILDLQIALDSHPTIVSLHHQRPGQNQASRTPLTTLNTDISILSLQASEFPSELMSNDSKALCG

Variants of: B1
Details: with id2_human ID2, Q02363

| Variant | effect of a mutation on the interaction |
| --- | --- |
| S812A | disrupting interaction |
